Data on nine molecules can be found in US10119980B2, “Method for detection of basic peptide and reagent for detection of basic peptide” (SYSMEX CORPORATION, priority 2009, dated 2018).

One assay deals with T1, heat-denatured BSA (Bos taurus, UniProt P02769).
T1 construct: purchased Sigma-Aldrich
The experiment in a line: Turbidity (OD550) measurement and Hill plot analysis of peptides mixed with heat-denatured BSA reagent. Particulars: for Hill coefficient n: Example 5, peptide 0 to 80 μM; for change in OD550 with increasing peptide concentration: peptide mixed with heat-denatured BSA, final 0.2 w/v %. The assay is classed as binding, bovine. How it is done:
A partial dynorphin A peptide consisting of amino acids of positions 1 to 13 of dynorphin A (SEQ ID NO: 2; Peptide Institute, Inc.) was used as the basic peptide of interest. A neutral peptide, α-endorphin (SEQ ID NO: 3; Peptide Institute, Inc.) was also used as a comparative peptide of interest. These peptides were dissolved in ultrapure water to prepare samples containing respective peptides (1.0 mg/ml).
The denatured BSA solution prepared in the above (1) (50 μl) was mixed with the respective samples prepared in (2) followed by addition of ultrapure water to prepare a total volume of 250 μl of mixed solutions containing respective peptides. In the preparation, the sample was mixed so as to obtain a final concentration of the respective peptides in the mixed solutions of 0 to 150 μM.
The thus-prepared mixed solutions were measured for OD550 in the similar manner as Example 1.
A fragment of kininogen (positions 439 to 457 (SEQ ID NO: 4); synthesized at Biologica Co.) and a fragment of ITIH4 (positions 611 to 642 (SEQ ID NO: 5); synthesized at Biologica Co.) which were known as cancer metastasis markers were used as basic peptides of interest. These peptides were dissolved in ultrapure water to prepare samples containing respective peptides (1.0 mg/ml).
The denatured BSA solution prepared in the above (1) (50 μl) was mixed with the respective samples prepared in (2) followed by addition of ultrapure water to prepare a total volume of 250 μl of mixed solutions containing respective peptides. In the preparation, the sample was mixed so as to obtain a final concentration of the respective peptides in the mixed solutions of 0 to 80 μM.
The thus-prepared mixed solutions were measured for OD550 in the similar manner as Example 1. The Kd value and Hill coefficient were calculated for the respective samples.
Besides a basic peptide, to be studied for comparison, a neutral peptide Fibrinogen α (SEQ ID NO: 6; Biological Co.) and acidic peptides C3f (SEQ ID NO: 7; Biologica Co.) and Factor XIII (SEQ ID NO: 8; Biologica Co.) were prepared. These peptides were dissolved in ultrapure water to prepare samples containing respective peptides (1.0 mg/ml).
The denatured BSA solution prepared in the above (1) (50 μl) was mixed with the respective samples prepared in (2) followed by addition of ultrapure water to prepare a total volume of 250 μl of mixed solutions containing the respective peptides. In the preparation, the sample was mixed with the heat-denatured BSA solution so as to obtain a final concentration of the respective peptides in the mixed solutions of 0 to 80 μM.

For assay [1], the target named is T2, partial ACTH peptide (positions 1 to 24 of ACTH) (Homo sapiens, UniProt P01189).
T2 construct: consisting of the amino acids of positions 1 to 24 of ACTH
T2 sequence (P01189 138-161): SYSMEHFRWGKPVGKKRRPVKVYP
The experiment in a line: Turbidity (OD550) measurement and Hill plot analysis of albumin reagents mixed with partial ACTH peptide. The assay is classed as binding. The note with it: for change in OD550 with increasing partial ACTH peptide concentration: albumin reagent mixed with partial ACTH peptide. How it is done:
BSA (Sigma-Aldrich) was dissolved in Milli-Q® water (Millipore) to prepare a BSA solution (1.0 w/v %). The BSA solution was divided into two and one was designated as a non-denatured BSA solution and the other was autoclaved at 110° C. for 15 minutes to obtain a heat-denatured BSA solution.
A partial ACTH peptide (Peptide Institute, Inc.) consisting of the amino acids of positions 1 to 24 of ACTH was used as the basic peptide of interest. The peptide was dissolved in ultrapure water to prepare a sample containing the basic peptide of interest (1.0 mg/ml).
The heat-denatured BSA solution prepared in the above (1) (50 μl) was mixed with the sample prepared in (2) followed by addition of ultrapure water to prepare a total volume of 250 μl of a mixed solution (final concentration of heat-denatured BSA: 0.2 w/v %). In this preparation, the sample was mixed so as to obtain a final concentration of the partial ACTH peptide in the mixed solution of 0 to 150 μM. A comparative mixed solution was also prepared in the similar manner except that the non-denatured BSA solution was used instead of the heat-denatured BSA solution.
The thus-prepared mixed solutions were measured for absorbance at the wavelength of 550 nm (OD550) in a spectrophotometer UV-2500PC (Shimadzu Corporation). The obtained results were subjected to Hill plot analysis with KaleidaGraph (HULINKS, Inc.) to calculate the values of Kd and the Hill coefficient of heat-denatured BSA and non-denatured BSA.
BSA (Sigma-Aldrich) was dissolved in Milli-Q® water (Millipore) to prepare a BSA solution (1.0 w/v %). The BSA solution was divided into five aliquots among which one was designated as a non-denatured BSA solution (heat denaturation period: 0 min) and the rest of four were heated in an autoclave at 110° C. for 5, 15, 60 and 120 min, respectively, to obtain heat-denatured BSA solutions.
The Kd value and Hill coefficient of BSA at respective heat denaturation periods were calculated. […]
The Kd value and Hill coefficient were calculated for the mixed solutions. […]

Where [2] appears, read: Example 1, final BSA 0.2 w/v %, peptide 0 to 150 μM, OD550 Hill plot.
The mark [3] stands for this setting: Example 6, albumin autoclaved at 115° C. for 15 minutes, final 0.2 w/v %, peptide 0 to 80 μM.

Ends that are not written are not given here.

T1 sequence (P02769 25-607): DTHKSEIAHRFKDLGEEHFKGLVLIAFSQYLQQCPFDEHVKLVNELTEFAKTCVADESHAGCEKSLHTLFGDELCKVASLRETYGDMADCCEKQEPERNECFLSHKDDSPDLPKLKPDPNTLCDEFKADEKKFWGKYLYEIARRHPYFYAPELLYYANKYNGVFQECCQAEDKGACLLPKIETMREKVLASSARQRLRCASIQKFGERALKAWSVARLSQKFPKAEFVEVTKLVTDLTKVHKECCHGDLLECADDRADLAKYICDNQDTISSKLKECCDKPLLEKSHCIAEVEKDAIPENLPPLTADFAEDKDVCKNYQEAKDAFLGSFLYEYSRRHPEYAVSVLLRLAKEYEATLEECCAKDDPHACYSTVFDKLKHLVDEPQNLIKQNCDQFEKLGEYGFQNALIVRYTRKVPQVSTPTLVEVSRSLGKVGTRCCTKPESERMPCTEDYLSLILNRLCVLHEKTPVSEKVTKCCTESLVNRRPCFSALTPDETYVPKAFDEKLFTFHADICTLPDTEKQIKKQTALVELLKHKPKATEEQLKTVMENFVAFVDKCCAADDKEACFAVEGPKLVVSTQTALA

On heat-denatured BSA (OD550 Hill plot), “GESRNRNVHSGSTFFKYYLQGAKIPKPEASFS [ITIH4 (611-642)]” showed a Hill coefficient n of 9. The “change in OD550 with increasing peptide concentration” value at heat-denatured BSA is “increased in a peptide concentration dependent manner”.

“HNLGHGHKHERDQGHGHQR [Kininogen (439-457)]” came in with a Hill coefficient n at heat-denatured BSA (OD550 Hill plot) of 8. The “change in OD550 with increasing peptide concentration” value at heat-denatured BSA is given as “increased”.

Turning to `CC[C@H](C)[C@H](NC(=O)[C@H](CCCNC(=N)N)NC(=O)[C@H](CCCNC(=N)N)NC(=O)[C@H](CC(C)C)NC(=O)[C@H](Cc1ccccc1)NC(=O)CNC(=O)CNC(=O)[C@@H](N)Cc1ccc(O)cc1)C(=O)N[C@@H](CCCNC(=N)N)C(=O)N1CCC[C@H]1C(=O)N[C@@H](CCCCN)C(=O)N[C@@H](CC(C)C)C(=O)N[C@@H](CCCCN)C(=O)O` [partial dynorphin A peptide], on heat-denatured BSA, binding was characterised by a dissociation constant (Kd) of 30 µM and the “change in OD550 with increasing peptide concentration” value is recorded as “increased in a concentration dependent manner”. For the same molecule, the Hill coefficient at heat-denatured BSA (Example 4, peptide 0 to 150 μM, OD550 Hill plot) is given as 8.

In the case of “α-endorphin (YGGFMTSEKSQTPLVT; listed as Homo sapiens)”, in the assay with heat-denatured BSA, the “change in OD550 with increasing peptide concentration” value was “no change in OD550”.

As for “C3f: acidic peptide C3f (SEQ ID NO: 7) (HWESASLL; listed as Homo sapiens)”, the “change in OD550 with increasing peptide concentration” value with heat-denatured BSA is recorded as “no change in OD550”.

“Fibrinogen α: neutral peptide Fibrinogen α (SEQ ID NO: 6) (DEAGSEADHEGTHSTKRGHAKSRPV; listed as Homo sapiens)”: in the assay with heat-denatured BSA, the “change in OD550 with increasing peptide concentration” value is “no change in OD550”.

Consider “Non-denatured BSA: BSA (Sigma-Aldrich) solution 1.0 w/v %, not heated; comparative reagent [reference compound]”, for which the Hill coefficient n in assay [1] (setting [2]) and in assay [1] (heat denaturation period 0 min) was 1 throughout. Further, the Kd in assay [1] (setting [2]) and in assay [1] (heat denaturation period 0 min) was 290 µM each time. Moreover, the “change in OD550 with increasing partial ACTH peptide concentration” value in assay [1] was “significant change in the value of OD550 was not observed”; in assay [1] (listed as BSA solution that was heat-denatured for 0 min), “not changed”.

In the case of “Factor XIII: acidic peptide Factor XIII (SEQ ID NO: 8) (AVPPNNSNAAEDDLPTVELQGVVPR; listed as Homo sapiens)”, the “change in OD550 with increasing peptide concentration” value with heat-denatured BSA is “no change in OD550”.

B1: Heat-denatured OA: ovoalbumin solution (1.0 w/v %), pH 5 to 7, autoclaved at 115° C. for 15 minutes (protein)
chain: GSIGAASMEFCFDVFKELKVHHANENIFYCPIAIMSALAMVYLGAKDSTRTQINKVVRFDKLPGFGDSIEAQCGTSVNVHSSLRDILNQITKPNDVYSFSLASRLYAEERYPILPEYLQCVKELYRGGLEPINFQTAADQARELINSWVESQTNGIIRNVLQPSSVDSQTAMVLVNAIVFKGLWEKAFKDEDTQAMPFRVTEQESKPVQMMYQIGLFRVASMASEKMKILELPFASGTMSMLVLLPDEVSGLEQLESIINFEKLTEWTSSNVMEERKIKVYLPRMKMEEKYNLTSVLMAMGITDVFSSSANLSGISSAESLKISQAVHAAHAEINEAGREVVGSAEAGVDAASVSEEFRADHPFLFCIKHIATNAVLFFGRCVSP
As to B1, the Hill coefficient n in assay [1] (setting [3]) worked out at 3; in assay [1] (Example 6, albumin autoclaved at 115° C. for 15 minutes, final 0.2 w/v %, peptide 0 to 80 μM, listed as heat-denatured OA), 11. This molecule also came in with a Kd in assay [1] (setting [3]) of 67 µM. Besides, in assay [1], the “change in OD550 with increasing partial ACTH peptide concentration” value is “increase in a manner dependent on the concentrations of the basic peptide”.

For orientation: Kd means the concentration at which binding is half-saturated. As usually defined, the Hill coefficient is the slope factor of the fitted curve.
